Results as given in patent publication US20260263521A1 (AIMED BIO, published 2026).
One block for each binder: values may come before it.

Assays:
[1] = target: T1, human CD200R1 recombinant protein (construct not stated) (human, UniProt Q8TD46 27-266, limits assumed); assay: hybridoma ELISA on human CD200R1
T1 sequence (looked up): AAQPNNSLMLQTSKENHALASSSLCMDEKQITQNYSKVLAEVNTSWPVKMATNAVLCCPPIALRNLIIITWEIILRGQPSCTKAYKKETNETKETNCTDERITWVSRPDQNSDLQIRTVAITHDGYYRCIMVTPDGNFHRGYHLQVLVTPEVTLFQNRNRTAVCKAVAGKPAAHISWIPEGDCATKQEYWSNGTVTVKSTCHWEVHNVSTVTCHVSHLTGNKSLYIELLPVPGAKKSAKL

[2] = target: T2, human CD200R1 expressed on cells (Jurkat-CD200R1, U937-CD200R1, HH cells) (human, UniProt Q8TD46 25-348); assay: flow cytometry, Jurkat-CD200R cells
T2 construct: whole, on cells; also called HH (CRL-2105); cell surface-expressed CD200R1
T2 sequence (looked up): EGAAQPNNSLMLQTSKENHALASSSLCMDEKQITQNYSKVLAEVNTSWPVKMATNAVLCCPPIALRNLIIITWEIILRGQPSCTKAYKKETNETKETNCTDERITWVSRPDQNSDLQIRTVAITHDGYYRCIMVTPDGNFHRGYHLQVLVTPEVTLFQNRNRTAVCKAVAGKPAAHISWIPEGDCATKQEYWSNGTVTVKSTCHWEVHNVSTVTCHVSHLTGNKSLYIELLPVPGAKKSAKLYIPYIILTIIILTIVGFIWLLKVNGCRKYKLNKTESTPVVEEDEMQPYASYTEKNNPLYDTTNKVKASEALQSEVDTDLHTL
Procedure: Two additional wells were treated with 10 μl of mouse IgG1K (BD, #555751) and 5 μl of commercial CD200R1 antibody (Biolegend, #329308) to determine CD200R1 expression on the cell line surface for cell quality control.
The antibodies were serially diluted 10-fold from a maximum concentration of 100 nM to 10 nM, 1 nM, […], and were added to the pre-seeded cells. After reaction for 1 hour at 4° C., the cells were treated with Alexa-647 goat anti-human IgG (H+L) cross-adsorbed secondary antibody (Invitrogen, #A21445) and incubated for an additional 30 minutes at 4° C. After washing twice with FACS buffer, flow cytometry was performed using a Novocyte Flow cytometer (Agilent). Using GraphPad Prism software, the EC₅₀ was determined using a nonlinear graph model of log (agonist) vs. response-variable slope, as shown in Table 32.

[3] = target: T3, human CD200R1 with dual His-tags (human, UniProt Q8TD46 25-265); assay: SPR (Biacore CM5), His-tagged antigen captured by anti-histidine antibody, antibody as analyte, 1:1 Langmuir fit
T3 construct: Captured on the SPR chip by an anti-histidine antibody; also called hCD200R1-his; not shown: dual His-tags
T3 sequence (looked up): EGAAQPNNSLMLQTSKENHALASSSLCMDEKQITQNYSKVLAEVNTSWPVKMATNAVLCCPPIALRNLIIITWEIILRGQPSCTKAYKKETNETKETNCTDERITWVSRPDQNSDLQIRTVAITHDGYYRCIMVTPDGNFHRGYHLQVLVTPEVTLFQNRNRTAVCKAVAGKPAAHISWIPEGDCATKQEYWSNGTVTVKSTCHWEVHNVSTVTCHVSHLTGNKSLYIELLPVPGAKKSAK
Procedure: (§1) For the experiment, 30 μg/mL of an anti-histidine antibody was conjugated to a CM5 biacore chip via an amine bond while allowing to flow at 10 μl/min (10,000 RU). Then, 0.25 μg/mL of human or cynomolgus CD200R1 with dual His-tags was captured onto the completed chip for 60 seconds, and the binding ability of each antibody was analyzed. All experiments were performed by association of antibodies for 120 seconds and dissociation of antibodies for 600 seconds. The resulting graphs were fitted using a 1:1 Langmuir binding kinetic model (FIG. 16), and the kinetics of each antibody were calculated.

[4] = target: T4, cynomolgus CD200R1 with dual His-tags (cynomolgus, UniProt G7NZT0 25-266); assay: as above
T4 construct: Captured on the SPR chip by an anti-histidine antibody; also called CCD200R1-his; cCD200R1-his; not shown: dual His-tags
T4 sequence: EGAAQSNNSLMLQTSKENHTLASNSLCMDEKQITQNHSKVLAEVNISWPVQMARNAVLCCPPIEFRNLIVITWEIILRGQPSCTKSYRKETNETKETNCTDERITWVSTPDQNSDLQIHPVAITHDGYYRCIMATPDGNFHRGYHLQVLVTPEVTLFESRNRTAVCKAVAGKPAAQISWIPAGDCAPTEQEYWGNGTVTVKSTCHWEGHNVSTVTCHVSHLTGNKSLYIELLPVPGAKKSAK
Procedure: as §1

[5] = target: T2, human CD200R1 expressed on cells …; assay: flow cytometry on Jurkat-CD200R1 and HH cells, 500 nM antibody in IgG1 form
Procedure: The cells were washed by centrifugation at 130 g for 5 minutes. The cells were seeded onto 96-well round-bottom plates (SPL, #34296) at a density of 1×10⁵ cells/well in Flow cytometry staining buffer (Invitrogen, #00-4222-26) or FACS buffer. […] After incubation for 1 hour at 4° C., the cells were treated with Alexa-647 Goat anti-human IgG (H+L) cross-adsorbed secondary antibody (Invitrogen, #A21445) and incubated at 4° C. for an additional 30 minutes. After washing twice with FACS buffer, flow cytometry analysis was performed using a Novocyte Flow cytometer (Agilent).

[6] = target: T5, mouse CD200R1 protein (R&D systems, 2554-CD) (mouse, UniProt Q9ES57 26-238, limits assumed); assay: ELISA, plate-bound mouse CD200R1 (2 ug/mL), IgG 0.0192-300 nM, OD 450 nm; panel 'mouse CD200R1'
T5 construct: Bought; construct not described
T5 sequence (looked up): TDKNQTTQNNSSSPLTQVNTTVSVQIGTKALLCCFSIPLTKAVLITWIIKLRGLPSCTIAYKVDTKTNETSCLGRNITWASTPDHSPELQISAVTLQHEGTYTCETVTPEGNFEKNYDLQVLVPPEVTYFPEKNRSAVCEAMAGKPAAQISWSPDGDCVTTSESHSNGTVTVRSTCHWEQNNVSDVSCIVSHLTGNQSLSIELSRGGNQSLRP
Procedure: 96-well plates were coated with human CD200R1 (R&D systems, 3414-CD) and mouse CD200R1 protein (R&D systems, 2554-CD) at a concentration of 2 μg/mL at 4° C. for 16 hours and then were blocked with 3% skim milk.
Color was developed with a TMB substrate solution (Thermo Scientific, 34029, 1-Step™ TMB-ELISA Ultra Substrate Solution). The color reaction was stopped with stop solution (Invitrogen, SS04, ELISA Stop Solution). The absorbance was measured at an optical density of 450 nm.

[7] = target: T6, human CD200RLa (Sino Biological, 11620-H08H) recombinant protein (human, UniProt Q6Q8B3 24-239); assay: ELISA, plate-bound human CD200RLa (2 ug/mL), antibody 0.0192-300 nM, O.D 450 nm; panel 'recombinant human CD200RLa'
T6 construct: Bought; construct not described
T6 sequence (looked up): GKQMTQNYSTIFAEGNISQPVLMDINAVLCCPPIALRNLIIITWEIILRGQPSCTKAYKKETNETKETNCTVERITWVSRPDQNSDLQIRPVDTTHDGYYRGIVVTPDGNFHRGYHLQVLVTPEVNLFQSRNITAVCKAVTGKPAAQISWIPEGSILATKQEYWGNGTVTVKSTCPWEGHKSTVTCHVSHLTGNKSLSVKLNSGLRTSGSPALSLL
Procedure: 96-well plates were coated with human CD200RLa (Sino Biological, 11620-H08H) and monkey CD200RLa (Sino Biological, 11576-C02H) recombinant proteins at a concentration of 2 μg/mL at 4° C. for 16 hours, and blocked with 3% skim milk for 1 hour. […] Color was developed with a TMB substrate solution (Thermo Scientific, 34029, 1-Step™ Ultra TMB-ELISA Substrate Solution). The color reaction was stopped with stop solution (Invitrogen, SS04, ELISA Stop Solution).

B1: 6C3 (hybridoma clone) (antibody, V domains shown)
VH: QVQLQQPGAELVRPGASVKLSCKASAYTFTSYWMNWVKQRPEQGLEWIGRIDPYDSETHYNQKFKDKAILTVDKSSSTAYMQLSSLTSEDSAVYYCARVDGNHLFDYWGQGTTLTVSS
VL: DIKMTQSPSSMYASLGERVTITCKASQDINSYLSWFQQKPGKSPKTLIYRANRLVDGVPSRFSGSGSGQDYSLTISSLEYEDMGIYYCLQYDEFPYTFGGGTKLEIK
ELISA O.D. [1]: ≥ 1.5 O.D.

Kd [4]: 28.6 pM
koff [4]: 8.08e-05 s⁻¹
kon [4]: 2.82e+06 M⁻¹ s⁻¹
B2: P001009v2 (antibody, V domains shown)
VH: EVQLLESGGGLVQPGGSLRLSCAASGFTFSSYDMSWVRQAPGKGLEWVSWISHGGGSIYYADSVKGRFTISRDNSKNTLYLQMNSLRAEDTAVYYCARDAPAYSAPLFDYWGQGTLVTVSS
VL: QSVLTQPPSASGTPGQRVTISCSGSSSNIGNNAVNWYQQLPGTAPKLLIYYDKNRPSGVPDRFSGSKSGTSASLAISGLRSEDEADYYCAAWDRSLSGYVFGGGTKLTVL
notes: P001009 with LC S52K and D93R (Kabat); also called P019001v2
EC50 [2]: 3080 pM
Kd [3]: 870 pM
koff [3]: 0.00654 s⁻¹
kon [3]: 7.52e+06 M⁻¹ s⁻¹

binding result [6]: no binding (tested: 300 nM)
binding result [7]: no binding (tested: 300 nM)
B3: P001006 (IgG) (antibody, V domains shown)
VH: EVQLLESGGGLVQPGGSLRLSCAASGFTFSDYAMSWVRQAPGKGLEWVSGISYGNGNTYYADSVKGRFTISRDNSKNTLYLQMNSLRAEDTAVYYCAKDPWQTAINDFDYWGQGTLVTVSS
VL: QSVLTQPPSASGTPGQRVTISCTGSSSNIGNNSVNWYQQLPGTAPKLLIYTNSHRPSEVPDRFSGSKSGTSASLAISGLRSEDEADYYCGTWDSSLSGYVFGGGTKLTVL
MFI normalized to P001017 (chimeric OX108), % [5]: > 50%

Kd [4]: 1150 pM
koff [4]: 7.09 s⁻¹
kon [4]: 6.14e+09 M⁻¹ s⁻¹
B4: P001009v3 (antibody, V domains shown)
VH: EVQLLESGGGLVQPGGSLRLSCAASGFTFSSYDMSWVRQAPGKGLEWVSWISHGGGSIYYADSVKGRFTISRDNSKNTLYLQMNSLRAEDTAVYYCARDAPAYSAPLFDYWGQGTLVTVSS
VL: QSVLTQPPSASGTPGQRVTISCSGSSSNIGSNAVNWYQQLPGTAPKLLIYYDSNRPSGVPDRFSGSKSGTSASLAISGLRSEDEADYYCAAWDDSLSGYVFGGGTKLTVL
notes: P001009 with LC N30S (Kabat); also called P019001v3
EC50 [2]: 330 pM
Kd [3]: 109 pM
koff [3]: 0.000452 s⁻¹
kon [3]: 4.16e+06 M⁻¹ s⁻¹

B5: 6A8 (hybridoma clone) (antibody, V domains shown)
VH: QVQLQQPGAELVKPGAPVKLSCKASGYTFTSYWMNWVKQRPGRGLEWIGRIDPSDSETHYNQKFKDKATLTVDKSSSTAYIQLSSLTSEDSAVYYCARSGGWLPGFAYWGQGTLVTVSA
VL: ENVLTQSPAIMSASPGEKVTMTCSASSSLSYMLWYQQKSSTSPKLWIYDTSKLASGVPGRFSGSGSGNSYSLTISSMEAEDVGTYYCFQGSGNPLMYTFGGGTKLEIK
ELISA O.D. [1]: ≥ 1.5 O.D.

B6: 3G4 (hybridoma clone) (antibody, V domains shown)
VH: QVQLQQPGAELVKPGAPVKLSCKASGFTLTSYWMNWVKQRPGRGLEWIGRIDPSDSETHYNQKFKDKATLTVDKSSSTAYIQLTSLTSEDSAVYYCARSGGWLPGFAYWGQGTLVTVSA
VL: ENVLTQSPAIMSASPGEKVTMTCSARSSVSYMHWYQQKSRTSPKLWIYDTSKLASGVPGRFSGSGSGNSYSLTISSMEAEDVATYYCFQGSGDPLMYTFGGGTKLEIK
ELISA O.D. [1]: ≥ 1.5 O.D.

B7: 1F1 (hybridoma clone) (antibody, V domains shown)
VH: QVQLQQPGAEFVKPGAPVKLSCKASGYTFTSYWMNWVKQRPGRGLEWIGRIDPADSEIHYNQKFKDKATLTVDKSSSTAYIQFSSLTSEDSAVYYCARSGGWLPGFAYWGQGTLVTVSA
VL: ENVLTQSPAIMSASPGEKVTMTCSASSSLIYMHWYQQKSSTSPKLWIYDTSKLASGVPGRFSGSGSGNSYSLTINSMEAEDVATYYCFQGSGYPLMYTFGGGTKLEIK
ELISA O.D. [1]: ≥ 1.5 O.D.

B8: 5E9 (hybridoma clone) (antibody, V domains shown)
VH: QVQLQQSGAELARPGASVKLSCKASGYTFTSYWMQWVKQRPGQGLEWIGAIYPGDGDTRYTQKFKGKATLTADKSSSTAYMQLRSLASEDSAVFYCARGGVTTLVPYFFDYWGQGATLTVSS
VL: DVLMTQTPLSLPVSLGDQASISCRSSQSIVHSNGNTYLEWYLQKPGQSPKLLIYKVSNRFSGVPDRFSGSGSGTDFTLKISRVEAEDLGVYYCFQGSHVPPTFGGGTKLEIK
ELISA O.D. [1]: ≥ 1.5 O.D.
